Data taken from patent EP4361176A1 (CHUGAI SEIYAKU KABUSHIKI KAISHA, dated 2024).

T1: human FcγRIIa H extracellular domain (human, UniProt P12318 34-217)
T1 construct: extracellular domain; Made by the method of WO2014104165; also called hFcγR IIa H; FcyRIIaH
T1 sequence (looked up): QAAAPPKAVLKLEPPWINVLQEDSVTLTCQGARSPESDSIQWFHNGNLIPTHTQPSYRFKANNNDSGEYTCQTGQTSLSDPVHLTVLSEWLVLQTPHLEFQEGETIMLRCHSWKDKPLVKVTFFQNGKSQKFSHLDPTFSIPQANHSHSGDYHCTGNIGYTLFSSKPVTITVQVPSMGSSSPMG

T2: hFcyRIIaH on hFcyRIIaH-expressing Jurkat cells (human, UniProt P12318 34-317)
T2 sequence (looked up): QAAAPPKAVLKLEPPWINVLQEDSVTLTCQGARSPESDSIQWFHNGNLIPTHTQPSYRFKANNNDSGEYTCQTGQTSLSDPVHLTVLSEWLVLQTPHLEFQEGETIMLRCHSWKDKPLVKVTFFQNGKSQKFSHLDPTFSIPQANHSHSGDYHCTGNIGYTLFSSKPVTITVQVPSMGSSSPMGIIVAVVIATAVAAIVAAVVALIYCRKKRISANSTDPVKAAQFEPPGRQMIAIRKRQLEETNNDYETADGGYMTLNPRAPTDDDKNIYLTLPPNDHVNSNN


Key:
[1] = molecular target: T1, human FcγRIIa H extracellular domain; test: SPR; KD for FcγRIIb divided by KD for this FcγR
[2] = molecular target: T3, human FcγRIIIa F extracellular domain (human, UniProt P08637 17-208); test: SPR; KD for FcγRIIb divided by KD for this FcγR
T3 construct: extracellular domain; Made by the method of WO2014104165; also called hFcγR IIIa F; FcyRIIIaF
T3 sequence (P08637 17-208): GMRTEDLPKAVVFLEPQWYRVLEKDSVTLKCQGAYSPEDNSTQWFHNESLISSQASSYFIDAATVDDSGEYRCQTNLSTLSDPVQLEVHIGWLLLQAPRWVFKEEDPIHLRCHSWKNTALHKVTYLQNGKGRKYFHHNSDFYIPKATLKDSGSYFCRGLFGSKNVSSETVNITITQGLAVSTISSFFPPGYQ

[3] = molecular target: T2, hFcyRIIaH on hFcyRIIaH-expressing …; test: cell-based or functional assay
[4] = molecular target: hFcyRIIIaV on hFcyRIIIaV-expressing Jurkat cells (human, UniProt P08637 17-254); test: cell-based or functional assay
Sequence of hFcyRIIIaV on hFcyRIIIaV-expressing Jurkat cells (P08637 17-254): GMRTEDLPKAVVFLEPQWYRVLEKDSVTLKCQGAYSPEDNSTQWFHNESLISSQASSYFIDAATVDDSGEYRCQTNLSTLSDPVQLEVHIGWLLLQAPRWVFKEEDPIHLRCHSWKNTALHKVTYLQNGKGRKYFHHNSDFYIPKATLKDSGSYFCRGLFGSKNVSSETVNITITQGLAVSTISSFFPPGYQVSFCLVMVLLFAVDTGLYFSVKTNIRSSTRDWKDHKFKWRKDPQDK

Row | Binder | A/I ratio (KD for FcγRIIb divided by KD for each FcyR) [1] | A/I ratio (KD for FcγRIIb divided by KD for each FcyR) [2] | EC50 value (µg/mL), ADCP reporter bioassay (fold induction of luminescence), Hepa1-6/hEREG target cells [3] [µg/mL] | EC50 value (µg/mL), ADCC reporter bioassay (fold induction of luminescence), Hepa1-6/hEREG target cells [4] [µg/mL]
1 | H240-Kn456/L73-k0//H240-Hl446/L73-k0 (antibody, human IgG1, kappa, also called EGL-ART4; ART4) heavy 1: QDQLVQSGAEVKKPGASVKVSCKASGFNIKDTYIQWVRQAPGQGLEWMGRIDPLRKQTKYREKFEGRVTITADTSTNTAYMELSSLRSEDTAVYYCVRSGREFDYWGQGTLVTVSSASTKGPSVFPLAPSSKSTSGGTAALGCLVKDYFPEPVTVSWNSGALTSGVHTFPAVLQSSGLYSLSSVVTVPSSSLGTQTYICNVNHKPSNTKVDKKVEPKSCDKTHTCPPCPAPEFQWGPMVFLFPPKPKDVLMISRTPEVTCVVVDVSDEEPEVKFNWYVDGVEVHNAKTKPREEQYNATYRVVSVLPVLHQDWLNGKEYKCKVSNKALPMPEEKTISKAKGQPREPQVCTLPPSRDELTKNQVSLWCLVKGFYPSDIAVEWESNGQPENNYKTTPPVLDSDGSFFLYSKLTVDKSRWQQGNVFSCSVMHEALHNHYTQKSLSLSP heavy 2: QDQLVQSGAEVKKPGASVKVSCKASGFNIKDTYIQWVRQAPGQGLEWMGRIDPLRKQTKYREKFEGRVTITADTSTNTAYMELSSLRSEDTAVYYCVRSGREFDYWGQGTLVTVSSASTKGPSVFPLAPSSKSTSGGTAALGCLVKDYFPEPVTVSWNSGALTSGVHTFPAVLQSSGLYSLSSVVTVPSSSLGTQTYICNVNHKPSNTKVDKKVEPKSCDKTHTCPPCPAPELLAGPSVFLFPPKPKDVLMISRTPEVTCVVVDVSHEEPEVKFNWYVDGVEVHNAKTKPREEQYNATYRVVSVLPVLHQDWLNGKEYKCKVSNDALPMPEEETISKAKGQPREPQVYTLPPSRCELTKNQVSLSCAVKGFYPSDIAVEWESNGQPENNYKTTPPVLDSDGSFFLVSKLTVDKSRWQQGNVFSCSVMHEALHNHYTQKSLSLSP light: DIQMTQSPSSLSASVGDRVTITCRASQDIHKYIAWYQQKPGQAPRLLIQYTSTLQPGVPSRFSGSGSGTDYTFTISSLQPEDIATYYCLQYEQLRTFGGGTKVEIKRTVAAPSVFIFPPSDEQLKSGTASVVCLLNNFYPREAKVQWKVDNALQSGNSQESVTEQDSKDSTYSLSSTLTLSKADYEKHKVYACEVTHQGLSSPVTKSFNRGEC | 65.2 | 9940 | 0.0432 | 0.000789
2 | H240-Kn461/L73-k0//H240-Hl443/L73-k0 (antibody, human IgG1, kappa, also called EGL-ART8; ART8) heavy 1: QDQLVQSGAEVKKPGASVKVSCKASGFNIKDTYIQWVRQAPGQGLEWMGRIDPLRKQTKYREKFEGRVTITADTSTNTAYMELSSLRSEDTAVYYCVRSGREFDYWGQGTLVTVSSASTKGPSVFPLAPSSKSTSGGTAALGCLVKDYFPEPVTVSWNSGALTSGVHTFPAVLQSSGLYSLSSVVTVPSSSLGTQTYICNVNHKPSNTKVDKKVEPKSCDKTHTCPPCPAPEFQWGPMVFLFPPKPKDVLMISRTPEVTCVVVDVSDEEPEVKFNWYVDGVEVHNAKTKPREEQYNATYRVVSVLPVLHQDWLNGKEYKCKVSNDALPAPEEKTISKAKGQPREPQVCTLPPSRDELTKNQVSLWCLVKGFYPSDIAVEWESNGQPENNYKTTPPVLDSDGSFFLYSKLTVDKSRWQQGNVFSCSVMHEALHNHYTQKSLSLSP heavy 2: QDQLVQSGAEVKKPGASVKVSCKASGFNIKDTYIQWVRQAPGQGLEWMGRIDPLRKQTKYREKFEGRVTITADTSTNTAYMELSSLRSEDTAVYYCVRSGREFDYWGQGTLVTVSSASTKGPSVFPLAPSSKSTSGGTAALGCLVKDYFPEPVTVSWNSGALTSGVHTFPAVLQSSGLYSLSSVVTVPSSSLGTQTYICNVNHKPSNTKVDKKVEPKSCDKTHTCPPCPAPELLAGPSVFLFPPKPKDVLMISRTPEVTCVVVDVSHEEPEVKFNWYVDGVEVHNAKTKPREEQYNATYRVVSVLPVLHQDWLNGKEYKCKVSNDALPAPEEETISKAKGQPREPQVYTLPPSRCELTKNQVSLSCAVKGFYPSDIAVEWESNGQPENNYKTTPPVLDSDGSFFLVSKLTVDKSRWQQGNVFSCSVMHEALHNHYTQKSLSLSP light: DIQMTQSPSSLSASVGDRVTITCRASQDIHKYIAWYQQKPGQAPRLLIQYTSTLQPGVPSRFSGSGSGTDYTFTISSLQPEDIATYYCLQYEQLRTFGGGTKVEIKRTVAAPSVFIFPPSDEQLKSGTASVVCLLNNFYPREAKVQWKVDNALQSGNSQESVTEQDSKDSTYSLSSTLTLSKADYEKHKVYACEVTHQGLSSPVTKSFNRGEC | 47.2 | 2350 | 0.0171 | 0.00107

The next lines start with the values.

Row | A/I ratio (KD for FcγRIIb divided by KD for each FcyR) [1] | A/I ratio (KD for FcγRIIb divided by KD for each FcyR) [2] | EC50 value (µg/mL), ADCP reporter bioassay (fold induction of luminescence), Hepa1-6/hEREG target cells [3] [µg/mL] | EC50 value (µg/mL), ADCC reporter bioassay (fold induction of luminescence), Hepa1-6/hEREG target cells [4] [µg/mL] | Binder
3 | 181 | 396 | 0.0158 | 0.00153 | H240-Kn443/L73-k0//H240-Hl408/L73-k0 (antibody, human IgG1, kappa, also called EGL-ART3; ART3) heavy 1: QDQLVQSGAEVKKPGASVKVSCKASGFNIKDTYIQWVRQAPGQGLEWMGRIDPLRKQTKYREKFEGRVTITADTSTNTAYMELSSLRSEDTAVYYCVRSGREFDYWGQGTLVTVSSASTKGPSVFPLAPSSKSTSGGTAALGCLVKDYFPEPVTVSWNSGALTSGVHTFPAVLQSSGLYSLSSVVTVPSSSLGTQTYICNVNHKPSNTKVDKKVEPKSCDKTHTCPPCPAPEFQWGPMVFLFPPKPKDTLMISRTPEVTCVVVDVSDEEPEVKFNWYVDGVEVHNAKTKPREEQYNATYRVVSVLTVLHQDWLNGKEYKCKVSNDALPAPIEKTISKAKGQPREPQVCTLPPSRDELTKNQVSLWCLVKGFYPSDIAVEWESNGQPENNYKTTPPVLDSDGSFFLYSKLTVDKSRWQQGNVFSCSVMHEALHNHYTQKSLSLSP heavy 2: QDQLVQSGAEVKKPGASVKVSCKASGFNIKDTYIQWVRQAPGQGLEWMGRIDPLRKQTKYREKFEGRVTITADTSTNTAYMELSSLRSEDTAVYYCVRSGREFDYWGQGTLVTVSSASTKGPSVFPLAPSSKSTSGGTAALGCLVKDYFPEPVTVSWNSGALTSGVHTFPAVLQSSGLYSLSSVVTVPSSSLGTQTYICNVNHKPSNTKVDKKVEPKSCDKTHTCPPCPAPELLAGPSVFLFPPKPKDTLMISRTPEVTCVVVDVSHEEPEVKFNWYVDGVEVHNAKTKPREEQYNATYRVVSVLTVLHQDWLNGKEYKCKVSNDALPAPIEETISKAKGQPREPQVYTLPPSRCELTKNQVSLSCAVKGFYPSDIAVEWESNGQPENNYKTTPPVLDSDGSFFLVSKLTVDKSRWQQGNVFSCSVMHEALHNHYTQKSLSLSP light: DIQMTQSPSSLSASVGDRVTITCRASQDIHKYIAWYQQKPGQAPRLLIQYTSTLQPGVPSRFSGSGSGTDYTFTISSLQPEDIATYYCLQYEQLRTFGGGTKVEIKRTVAAPSVFIFPPSDEQLKSGTASVVCLLNNFYPREAKVQWKVDNALQSGNSQESVTEQDSKDSTYSLSSTLTLSKADYEKHKVYACEVTHQGLSSPVTKSFNRGEC
4 | 240 | 399 | 0.0245 | 0.00167 | H240-Kn462/L73-k0//H240-Hl441/L73-k0 (antibody, human IgG1, kappa, also called EGL-ART5; ART5) heavy 1: QDQLVQSGAEVKKPGASVKVSCKASGFNIKDTYIQWVRQAPGQGLEWMGRIDPLRKQTKYREKFEGRVTITADTSTNTAYMELSSLRSEDTAVYYCVRSGREFDYWGQGTLVTVSSASTKGPSVFPLAPSSKSTSGGTAALGCLVKDYFPEPVTVSWNSGALTSGVHTFPAVLQSSGLYSLSSVVTVPSSSLGTQTYICNVNHKPSNTKVDKKVEPKSCDKTHTCPPCPAPEFQWGPMVFLFPPKPKDVLMISRTPEVTCVVVDVSDEEPEVKFNWYVDGVEVHNAKTKPREEQYNATYRVVSVLPVLHQDWLNGKEYKCKVSNDALPAPIEKTISKAKGQPREPQVCTLPPSRDELTKNQVSLWCLVKGFYPSDIAVEWESNGQPENNYKTTPPVLDSDGSFFLYSKLTVDKSRWQQGNVFSCSVMHEALHNHYTQKSLSLSP heavy 2: QDQLVQSGAEVKKPGASVKVSCKASGFNIKDTYIQWVRQAPGQGLEWMGRIDPLRKQTKYREKFEGRVTITADTSTNTAYMELSSLRSEDTAVYYCVRSGREFDYWGQGTLVTVSSASTKGPSVFPLAPSSKSTSGGTAALGCLVKDYFPEPVTVSWNSGALTSGVHTFPAVLQSSGLYSLSSVVTVPSSSLGTQTYICNVNHKPSNTKVDKKVEPKSCDKTHTCPPCPAPELLAGPSVFLFPPKPKDVLMISRTPEVTCVVVDVSHEEPEVKFNWYVDGVEVHNAKTKPREEQYNATYRVVSVLPVLHQDWLNGKEYKCKVSNDALPAPIEETISKAKGQPREPQVYTLPPSRCELTKNQVSLSCAVKGFYPSDIAVEWESNGQPENNYKTTPPVLDSDGSFFLVSKLTVDKSRWQQGNVFSCSVMHEALHNHYTQKSLSLSP light: DIQMTQSPSSLSASVGDRVTITCRASQDIHKYIAWYQQKPGQAPRLLIQYTSTLQPGVPSRFSGSGSGTDYTFTISSLQPEDIATYYCLQYEQLRTFGGGTKVEIKRTVAAPSVFIFPPSDEQLKSGTASVVCLLNNFYPREAKVQWKVDNALQSGNSQESVTEQDSKDSTYSLSSTLTLSKADYEKHKVYACEVTHQGLSSPVTKSFNRGEC
